How the values were obtained:
[1] = target: T1, Recombinant mouse FGF9 (fibroblast growth factor 9) (mouse); assay: FGF9 immobilised on heparin-sepharose, bound receptor-AP measured by alkaline phosphatase activity
[2] = target: T1, Recombinant mouse FGF9 (fibroblast …); assay: 125I-FGF9 binding to FGFR3 transfected CHO 745 cells at 4 C, in the presence of 1 mg/ml heparin
[3] = target: T1, Recombinant mouse FGF9 (fibroblast …); assay: 125I-FGF9 binding to FGFR3 transfected CHO-KI cells at 4 C, in the presence of 1 mg/ml heparin

binding result [1] | Kd [2] | Kd [3] | Binder
no binding | – | – | Soluble extracellular domain of murine FGFR1 coupled to human placental alkaline phosphatase (receptor, extracellular domain; Collected from conditioned medium of transfected NIH 3T3 cells; also called FGFR1 fusion protein; FGFR-alkaline phosphatase fusion protein; not shown: human placental alkaline phosphatase) RPAPTLPEQAQPWGVPVEVESLLVHPGDLLQLRCRLRDDVQSINWLRDGVQLVESNRTRITGEEVEVRDSIPADSGLYACVTSSPSGSDTTYFSVNVSDALPSSEDDDDDDDSSSEEKETDNTKPNRRPVAPYWTSPEKMEKKLHAVPAAKTVKFKCPSSGTPNPTLRWLKNGKEFKPDHRIGGYKVRYATWSIIMDSVVPSDKGNYTCIVENEYGSINHTYQLDVVERSPHRPILQAGLPANKTVALGSNVEFMCKVYSDPQPHIQWLKHIEVNGSKIGPDNLPYVQILKTAGVNTTDKEMEVLHLRNVSFEDAGEYTCLAGNSIGLSHHSAWLTVLEALEERPAVMTSPLYLE
– | 0.1 nM | 0.06 nM | Full length mouse FGFR3 expressed in CHO cells (wild type KI and heparan-sulfate deficient 745) (receptor, whole, on cells; also called FGFR3 transfected CHO-KI cells) EPPGPEQRVVRRAAEVPGPEPSQQEQVAFGSGDTVELSCHPPGGAPTGPTVWAKDGTGLVASHRILVGPQRLQVLNASHEDAGVYSCQHRLTRRVLCHFSVRVTDAPSSGDDEDGEDVAEDTGAPYWTRPERMDKKLLAVPAANTVRFRCPAAGNPTPSISWLKNGKEFRGEHRIGGIKLRHQQWSLVMESVVPSDRGNYTCVVENKFGSIRQTYTLDVLERSPHRPILQAGLPANQTAILGSDVEFHCKVYSDAQPHIQWLKHVEVNGSKVGPDGTPYVTVLKTAGANTTDKELEVLSLHNVTFEDAGEYTCLAGNSIGFSHHSAWLVVLPAEEELMETDEAGSVYAGVLSYGVVFFLFILVVAAVILCRLRSPPKKGLGSPTVHKVSRFPLKRQVSLESNSSMNSNTPLVRIARLSSGEGPVLANVSELELPADPKWELSRTRLTLGKPLGEGCFGQVVMAEAIGIDKDRTAKPVTVAVKMLKDDATDKDLSDLVSEMEMMKMIGKHKNIINLLGACTQGGPLYVLVEYAAKGNLREFLRARRPPGMDYSFDACRLPEEQLTCKDLVSCAYQVARGMEYLASQKCIHRDLAARNVLVTEDNVMKIADFGLARDVHNLDYYKKTTNGRLPVKWMAPEALFDRVYTHQSDVWSFGVLLWEIFTPGGPSPYPGIPVEELFKLLKEGHRMDKPASCTHDLYMIMRECWHAVPSQRPTFKQLVEDLDRILTVTSTDEYLDLSVPFEQYSPGGQDTPSSSSSGDDSVFTHDLLPPGPPSNGGPRT
